Assay results from publication PMC1369289.

T1: JunB selected fragment (Mus musculus, UniProt P09450 265-328)
T1 sequence: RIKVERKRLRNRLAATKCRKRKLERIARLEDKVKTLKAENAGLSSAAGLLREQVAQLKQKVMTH

T2: JunD selected fragment (Mus musculus, UniProt P15066 262-325)
T2 sequence: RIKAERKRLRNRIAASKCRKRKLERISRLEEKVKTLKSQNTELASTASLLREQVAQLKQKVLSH


Columns and labels:
JunB selected fragment = molecular target: T1, JunB selected fragment; assay: EMSA
JunD selected fragment = molecular target: T2, JunD selected fragment; assay: EMSA
c-Jun selected fragment = c-Jun selected fragment (Mus musculus, UniProt P05627 255-313); assay: EMSA
Sequence of c-Jun selected fragment (P05627 255-313): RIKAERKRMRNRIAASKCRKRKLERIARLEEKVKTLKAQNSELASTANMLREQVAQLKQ

[1] = molecular target: c-Fos model fragment;c-Jun model fragment (Mus musculus?;Mus musculus?, UniProt P01101;P05627 118-212;237-334, |); assay: mRNA display affinity selection, qPCR
Sequence of c-Fos model fragment;c-Jun model fragment (P01101 118-212, chain 1 of 2): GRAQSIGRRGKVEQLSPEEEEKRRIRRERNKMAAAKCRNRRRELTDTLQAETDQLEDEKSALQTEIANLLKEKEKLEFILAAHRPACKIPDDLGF
Sequence of c-Fos model fragment;c-Jun model fragment (P05627 237-334, chain 2 of 2): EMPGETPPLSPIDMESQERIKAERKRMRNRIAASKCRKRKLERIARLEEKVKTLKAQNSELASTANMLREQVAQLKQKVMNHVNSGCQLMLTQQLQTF

Binder | binding result (JunB selected fragment) | binding result (JunD selected fragment) | binding result (c-Jun selected fragment) | binding signal [1]
TRE EMSA probe (dsDNA) DNA 1: TTCTCCTATGACTCATCCAT DNA 2: AATGGATGAGTCATAGGAGA | binds | binds | binds | 
TRE bait DNA (dsDNA) DNA 1: TGATGACTCATCTCCTATGACTCATCCATTGCATGACTCAGACTTGATGAGTCAGCCGAGCATGAGTCAGACACCTTGCCTGAGCTCAGA DNA 2: TTCTGAGCTCAGGCAAGGTGTCTGACTCATGCTCGGCTGACTCATCAAGTCTGAGTCATGCAATGGATGAGTCATAGGAGATGAGTCATCA |  |  |  | ~100 fold enrichment
